Data as given in publication PMC12855180 (Nature Communications, 2025).
Residue numbers refer to the chain shown, from its start. Numbers in names are those of the source. Like-named read-outs stand apart in the source and are kept apart here.

B1: FliC D1D2D3 (residues 45-455), as in the FliD-FliC fusion (domain or fragment)
chain: AAGQAIANRFTANIKGLTQASRNANDGISIAQTTEGALNEINNNLQRVRELAVQSANSTNSQSDLDSIQAEITQRLNEIDRVSGQTQFNGVKVLAQDNTLTIQVGANDGETIDIDLKQINSQTLGLDTLNVQQKYKVSDTAATVTGYADTTIALDNSTFKASATGLGGTDQKIDGDLKFDDTTGKYYAKVTVTGGTGKDGYYEVSVDKTNGEVTLAGGATSPLTGGLPATATEDVKNVQVANADLTEAKAALTAAGVTGTASVVKMSYTDNNGKTIDGGLAVKVGDDYYSATQNKDGSISINTTKYTADDGTSKTALNKLGGADGKTEVVSIGGKTYAASKAEGHNFKAQPDLAEAAATTTENPLQKIDAALAQVDTLRSDLGAVQNRFNSAITNLGNTVNNLTSARSRIE
B2: FlgL, hook-filament junction protein (unlabeled, for NMR titration) (natural protein)
chain: MRISTQMMYEQNMSGITNSQAEWMKLGEQMSTGKRVTNPSDDPIAASQAVVLSQAQAQNSQYALARTFATQKVSLEESVLSQVTTAIQTAQEKIVYAGNGTLSDDDRASLATDLQGIRDQLMNLANSTDGNGRYIFAGYKTEAAPFDQATGGYHGGEKSVTQQVDSARTMVIGHTGAQIFNSITSNAVPEPDGSDSEKNLFVMLDTAIAALKTPVEGNNVEKEKAAAAIDKTNRGLKNSLNNVLTVRAELGTQLSELSTLDSLGSDRALGQKLQMSNLVDVDWNSVISSYVMQQAALQASYKTFTDMQGMSLFQLNR
B3: native FlgL of the hook-filament junction tip (natural protein)
chain: B2 chain
B4: FliD d0 domain truncation construct (FliD^d1d2d3, residues from 44 to 411) (domain or fragment)
chain: LTAYGTLKSALEKFQTANTALNKADLFKSTVASSTTEDLKVSTTAGAAAGTYKINVTQLAAAQSLATKTTFATTKEQLGDTSVTSRTIKIEQPGRKEPLEIKLDKGDTSMEAIRDAINDADSGIAASIVKVKENEFQLVLTANSGTDNTMKITVEGDTKLNDLLAYDSTTNTGNMQELVKAENAKLNVNGIDIERQSNTVTDAPQGITLTLTKKVTDATVTVTKDDTKAKEAIKSWVDAYNSLVDTFSSLTKYTAVEPGEEASDKNGALLGDSVVRTIQTGIRAQFANSGSNSAFKTMAEIGITQDGTSGKLKIDDDKLTKVLKDNTAAARELLVGDGKETGITTKIATEVKSYLADDGIIDNAQDNV
B5: full-length FliD, as in the fusion constructs (natural protein)
chain: MASISSLGVGSNLPLDQLLTDLTKNEKGRLTPITKQQSANSAKLTAYGTLKSALEKFQTANTALNKADLFKSTVASSTTEDLKVSTTAGAAAGTYKINVTQLAAAQSLATKTTFATTKEQLGDTSVTSRTIKIEQPGRKEPLEIKLDKGDTSMEAIRDAINDADSGIAASIVKVKENEFQLVLTANSGTDNTMKITVEGDTKLNDLLAYDSTTNTGNMQELVKAENAKLNVNGIDIERQSNTVTDAPQGITLTLTKKVTDATVTVTKDDTKAKEAIKSWVDAYNSLVDTFSSLTKYTAVEPGEEASDKNGALLGDSVVRTIQTGIRAQFANSGSNSAFKTMAEIGITQDGTSGKLKIDDDKLTKVLKDNTAAARELLVGDGKETGITTKIATEVKSYLADDGIIDNAQDNVNATLKSLTKQYLSVSNSIDETVARYKAQFTQLDTMMSKLNNTSSYLTQQFTAMNKS
B6: FliD^2C (A91C/A168C) (natural protein)
chain: B5 chain with A91C, A168C
B7: native FliD of the flagellar tip (natural protein)
chain: B5 chain

Assays:
[1] = target: FliD D1 domain (FliD^d1) (Salmonella enterica serovar Typhimurium) (UniProt P16328); test: NMR titration
[2] = target: B5; test: cryo-EM structure
[3] = target: FliD D1 domain (FliD^d1) (Salmonella enterica serovar Typhimurium) (UniProt P16328); test: NMR titration; remark: listed apart in the source
cryo-EM structure [4] = target: the molecule itself; test: cryo-EM structure
cryo-EM structure [5] = target: the molecule itself; test: cryo-EM structure; remark: listed apart in the source
cryo-EM structure [6] = target: the molecule itself; test: cryo-EM structure; remark: listed apart in the source
cryo-EM structure [7] = target: the molecule itself; test: cryo-EM structure; remark: listed apart in the source
cross-linking = target: the molecule itself; test: cross-linking

## FliC, flagellin (unlabeled, for NMR titration) (from UniProt P06179 1-495) (natural protein)
[1]
  Kd: 1650 µM
  stoichiometry N: 1

## B1
[2]
  stoichiometry N: 1

## B2
[3]
  Kd: 100 µM

## B3
cryo-EM structure [4]
  stoichiometry N: 11

## B4
cryo-EM structure [5]
  stoichiometry N: 5

## B5
cryo-EM structure [6]
  stoichiometry N: 10
cryo-EM structure [7]
  stoichiometry N: 5

## B6
cross-linking
  stoichiometry N: 5

## B7
cryo-EM structure [4]
  stoichiometry N: 5
